Measured values taken from patent publication US8486893B2, “Treatment of conditions involving demyelination” (Biogen Idec MA Inc., priority 2004, dated 2013).

Experiments:
[1] = tested on: RhoA-GTP; experiment: RhoA-GTP levels in oligodendrocyte lysates by western blotting; format: cell-based, rat; details: FIG. 9A
Text: A strong candidate signaling pathway that is implicated in the control of oligodendrocyte differentiation is the Rho family of GTPases. Rho GTPases regulate cellular morphology, and reduced RhoA-GTP amounts are required for oligodendrocyte differentiation. See Liang, X, et al., J. Neurosci. 24:7140-7149 (2004). To determine whether Sp35 signals through the RhoA pathway, RhoAGTP levels in cell lysates of oligodendrocytes treated with Sp35-Fc were compared with levels in the corresponding control via western blotting.

[2] = tested on: co-cultures of dorsal root ganglion (DRG) neurons and oligodendrocytes; experiment: In vitro myelination in co-cultures of DRG neurons and oligodendrocytes; format: cell-based, rat
Experimental: The role of Sp35 in myelination was examined in vitro by treating co-cultures of dorsal root ganglion (DRG) neurons and oligodendrocytes with Sp35-Fc and testing for myelination by immunohistochemistry and electron microscopy. For these studies, it was necessary to first generate primary cultures of DRG neurons and of oligodendrocytes.
Female Long Evans rat E14-E17 embryonic dorsal root ganglia were cultured as described by Plant et al., J. Neurosci. 22:6083-91 (2002). Dissected DRGs were plated on poly-L-lysine-coated cover slips (100 μg/ml) for 2 weeks in the presence of fluorodeoxyuridine for days 2-6 and days 8-11 in NLA medium containing 1× B27, 100 ng/ml NGF (Invitrogen).
A2B5^+ oligodendrocytes were prepared as described in Example 1, and were harvested by trypsinization.
For coculture studies, A2B5^+ oligodendrocytes were added to DRG neuron drop cultures in the presence or absence of 10 μg/ml Sp35-Fc. The culture medium (Neurobasal medium supplemented with B27 and 100 ng/ml NGF) was changed, and fresh Sp35-Fc was added to the cells every 3 d. To identify changes in myelination, 2-week-old cultures were stained by immunohistochemical staining (“IHC”) for neurofilaments with anti-βIII-tubulin antibody to identify axons, or anti-MBP antibody to identify oligodendrocytes., and 4-week-old cultures were subjected to SDS-PAGE followed by western blot analyses to quantify the MBP. In selected examples, cells were fixed for electron microscopy studies by adding 2.5% gluteraldehyde directly onto the cover slips. Myelinated axons in the 2-week-old cultures were quantified by counting the number of myelinated internode bundles that were derived from single MBP^+ oligodendrocytes. Samples were analyzed in duplicate. Error bars denote individual determinations. P values in all studies were determined using a one-way analysis of variance.
Several peptides containing portions of the Ig domain of Sp35 were examined in vitro, by treating co-cultures of dorsal root ganglion (DRG) neurons and oligodendrocytes with Sp35 Ig peptides and testing for myelination as described in Example 5.
For co-culture studies, A2B5^+ oligodendrocytes were added to DRG neuron drop cultures in the presence or absence of 10 μg/ml Sp35-Ig-Fc (Sp35 amino acids 417-493 fused to Fc). The culture medium (Neurobasal medium supplemented with B27 and 100 ng/ml NGF) was changed, and fresh Sp35-Ig-Fc was added to the cells every 3 d. To identify changes in myelination, 2-week-old cultures were stained by immunohistochemical staining (“IHC”) for neurofilaments with anti-βIII-tubulin antibody to identify axons, or anti-MBP antibody to identify oligodendrocytes and 4-week-old cultures were subjected to SDS-PAGE followed by western blot analyses to quantify the MBP.
We performed experiments to address the relative contributions to the myelination process of Sp35 in DRG neurons as compared to oligodendrocytes. We infected DRG neurons, oligodendrocytes and co-cultures (prepared as described in Example 5) with the FL-Sp35 and DN-Sp35 lentiviral vectors described in Example 1 and performed immunohistochemical straining for myelinated MBP cells after two weeks. A 2-fold increase in MBP levels in co-cultures where both cells express DN-Sp35 and a 2-fold decrease in MBP levels in co-cultures where both cells express FL-Sp35 was observed (FIG. 10G).

[3] = tested on: mature oligodendrocytes; experiment: Survival and MBP expression of mature oligodendrocyte cultures treated with Sp35-Fc; format: cell-based, rat; details: 10 μg/ml for 5 days
Experimental: Mature oligodendrocytes have a half-life in vitro of about 48 to 72 hours, with cells typically undergoing apoptosis after 72 hours. […] MBP expression was monitored as a marker for mature ologodendrocytes.

[4] = tested on: Caspase-3; experiment: Caspase-3 activation in differentiated PC12 cells after NGF withdrawal (Caspase 3/7 Glo); format: cell-based
Experimental: (§1) PC12 cells (Neuroscreen) were differentiated in RPMI-1640 medium supplemented with 5% fetal bovine serum, 10% horse serum, 2 mM glutamine, 100 U/ml penicillin and […] streptomycin containing 200 ng/ml NGF for 7 days. For experiments, the culture media was replaced with NGF-free culture media containing Sp35-Fc, human IgG as a negative control (0.1-10 μM), or zVAD as a positive control (0.1 μM). 18 hours after NGF withdrawal, activated Caspase-3 was quantified using the Caspase 3/7 Glo kit (Promega) according to the manufacturer's instructions. 42 hours after NGF withdrawal, apoptotic cell death was quantified using a cell death detection ELISA kit (Roche) according to the manufacturer's instructions.

[5] = tested on: cuprizone-treated mice; experiment: Cuprizone demyelination model, stereotactic injection into corpus callosum; format: in vivo; details: injected into corpus callosum at 2, 2.5 and 3 weeks of cuprizone feeding
Text: Adult wild-type C57Bl/6 male mice were fed cuprizone (0.2% milled with ground mouse chow by weight) for 6 weeks to induce demyelination within the corpus callosum. Sp35-Fc was stereotactically injected into the demyelinating corpus callosum at 2, 2.5, and 3 weeks of cuprizone feeding. Control mice were stereotactically injected at the same intervals with sterilized media containing no Sp35-Fc. After 6 weeks of cuprizone feeding, the mice were returned to a normal diet for 2, 4 and 6 weeks (ground mouse chow only) to allow remyelination.
The cuprizone-treated mice were anesthetized with ketamine (80 mg/kg body weight) and xylazine (10 mg/kg body weight) and positioned in an immobilization apparatus designed for stereotactic surgery (David Kopf Instruments). The scalp was opened and the sterile compounds injected (1 μM in […] of HBSS) unilaterally into the acutely demyelinated corpus callosum of the wild-type recipient mice with a […] Hamilton syringe using stereotactic coordinates of 0.7 mm posterior and 0.3 mm lateral to bregma at a depth of 1.7 mm (Messier et al., Pharmacol. Biochem. Behav. 63(2): 313-18 (1999)). Additionally, control recipient mice were stereotactically injected with HBSS containing no compounds. The opening in the skull was filled with Gelfoam, and the area was swabbed with penicillin and streptomycin (Gibco) and the wound was sutured. […]

[6] = tested on: differentiated PC12 cells; experiment: Apoptotic cell death in differentiated PC12 cells after NGF withdrawal (cell death ELISA / TUNEL); format: cell-based
Experimental: as §1

B1: Sp35-Fc: extra-cellular portion of human Sp35 (residues 1-532) fused to the hinge and Fc region of human IgG1 (protein)
chain: TGCPPRCECSAQDRAVLCHRKRFVAVPEGIPTETRLLDLGKNRIKTLNQDEFASFPHLEELELNENIVSAVEPGAFNNLFNLRTLGLRSNRLKLIPLGVFTGLSNLTKLDISENKIVILLDYMFQDLYNLKSLEVGDNDLVYISHRAFSGLNSLEQLTLEKCNLTSIPTEALSHLHGLIVLRLRHLNINAIRDYSFKRLYRLKVLEISHWPYLDTMTPNCLYGLNLTSLSITHCNLTAVPYLAVRHLVYLRFLNLSYNPISTIEGSMLHELLRLQEIQLVGGQLAVVEPYAFRGLNYLRVLNVSGNQLTTLEESVFHSVGNLETLILDSNPLACDCRLLWVFRRRWRLNFNRQQPTCATPEFVQGKEFKDFPDVLLPNYFTCRRARIRDRKAQQVFVDEGHTVQFVCRADGDPPPAILWLSPRKHLVSAKSNGRLTVFPDGTLEVRYAQVQDNGTYLCIAANAGGNDSMPAHLHVRSYSPDWPHQPNKTFAFISNQPGE
modifications: left off: a dimerising Fc or GST
notes: extra-cellular portion of human Sp35 (residues 1-532) fused to the hinge and Fc region of human IgG1
For B1, the “RhoA-GTP amount versus control” value [1] was “threefold reduction”, the “expression of MBP by western blot” value ([2]; 4-week-old treated cocultures, 10 μg/ml for Fc fusions) was “increased” and the “confocal microscopy of myelination” value ([2]; Sp35-Fc treated cocultures) was “MBP had encapsulated the axons”. For the same molecule, the “electron microscopy of myelination” value ([2]; cocultures treated 4 weeks, FIG. 10C) was “Multiple wellformed internodes”, the “effect on myelination when both cell types overexpress DN-Sp35” value ([2]; exogenously added) was “slight effects” and the “effect on myelination when either cell type overexpresses DN-Sp35 alone” value ([2]; exogenously added) was “further enhanced myelination”. The “effect on myelination in cocultures overexpressing FL-Sp35” value ([2]; exogenously added, FL-Sp35 in either or both cell types) was “reversed the inhibition of myelination”, the “axonal myelination (MBP+ myelinated axons)” value ([2]; treatment for 2 weeks, IHC, FIG. 10A) was “robust axonal myelination” and the “increase in MBP protein expression (cell staining and Western blot)” value ([3]; compared to control-Fc treated cells) was “approximately 3 fold”. For the same molecule, the “survival rate for mature oligodendrocytes (cell viability staining)” value ([3]; versus control-Fc) was “significantly increased survival rate”, the Caspase-3 activation ([4]; 0.1 μM, 18 hours after removal of NGF) was “reduced Caspase-3 activation” and the “dose dependence of effect on Caspase-3 activation” value ([4]; 0.1-10 μM, 18 hours after NGF withdrawal) was “dose-dependent”. For the same molecule, the “effect on Caspase-3 activation compared with zVAD (0.1 μM)” value ([4]; 1 or 10 μM, FIG. 14) was “as effective as a neuroprotective dose of the caspase inhibitor zVAD”, the “axon myelination by IHC (anti-MBP antibody or luxol fast blue)” value [5] was “increased” and the “mature oligodendrocyte survival (CC1 antibody staining)” value ([5]; FIG. 12) was “increased mature oligodendrocyte survival”. For the same molecule, the “cells undergoing apoptosis (TUNEL assay)” value ([6]; 18 hours after NGF withdrawal, FIG. 13 legend) was “fewer cells undergoing apoptosis” and the “cell death (TUNEL ELISA)” value ([6]; 42 hours after withdrawal of NGF, FIG. 13) was “significantly reduced cell death”.
